From the nanobody polyreactivity screen of Harvey et al. (2022)

Experiment: yeast display, Sf9 membrane polyspecificity reagent, FACS + sequencing; frameworks hold sequencing errors
How it was run: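 Using colony PCR, genes from sorted yeast display clones were amplified, then sequenced on MiSeq at 2 × 250 and filtered by CDR length. The clones had been stained with 10% biotinylated, detergent-solubilized Sf9 membrane reagent for 1 hour at 4 °C and sorted by FACS into low and high (top ~1%) gates on anti-HA and streptavidin fluorescence. Polyreactivity labels come from the gate of origin.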
With “QVQLVESGGGLVQAGGSLRLSCAASGSIFVGYAMGWYRQAPGKERELVAAITSGGNTNYADSVKGRFTISRDNAKNTVYLQMNSLKPEDTAVYYCNKDQGDGLRSQLGTDATYDYWGQGTQVTVSS” the “polyreactivity (PSR sort gate)” value was “low polyreactivity”.
With “QVQLVDSGGGLVQAGGSLRLSSAASGSTFRYYAMGWYRQAPGKERELVAAISRSGGRTYYADSVKWRFTISRDKAKNTVYLQINSLKPEDNAVYYCNKDSRASPYGYWGQGTQVTVSS” the “polyreactivity (PSR sort gate)” value was “high polyreactivity”.
In the case of “QVQLVESVGGLVQAGGSHRLSCAASGRTFYQYTMGWSRQAPGTERELVAAITTSTGNTYYADSVKVRFTISRDNAKNTVYLQMNRLKPADTAVYECAADTVWPLDYWGLGTQVTVSS”, the “polyreactivity (PSR sort gate)” value is reported as “low polyreactivity”.
With “QVQLVESGGGLVQAGGSLRLSCAASGFILGLNAMGWYRRAPGKEREFVADISWSGDSTYYADSVKGRFTISRDNAKNTVYLQMNSLKPEDTAVYFCAADRYYNWGYYYWGQGTQVTVSS” the “polyreactivity (PSR sort gate)” value was “low polyreactivity”.
With “QVQLVESGGGFVQAGGSLRLSCAASGRIFRLYAMGWYRQAPGKEREFVAAITFSGGRTYYADSVKGRFTISRDNAKNNVYLQMNSLKPEDTAVYYCAARGQTGYYSGVGYWGQGTQVTVSS” the “polyreactivity (PSR sort gate)” value was “high polyreactivity”.
With “QLQLVESGRGLVQAGGSLRLSCAASGLIFGNYAKRSYRQPPGKESELVAAITSTGITYYADSVKGRFTISRDNAKNTVYLQMTSLKPEDTAVYYCAAASRFHPDRGGYWGQGTQVTVSS” the “polyreactivity (PSR sort gate)” value was “low polyreactivity”.
With “QVHLEESGGGLVQAGGSLRLSWAASGATFSNYTMGWDRQAPGNERELVAAISRTGGSTYYADSVNGRFTISRDNAKNHVYLQISSLEPEDNAVYYCAAICYVGRYYYWGQGNQVTVSS” the “polyreactivity (PSR sort gate)” value was “high polyreactivity”.
For “QVQLVESGRGIVQAGGSLRLSCAASGRIFYLNAMGWYRQAPGKERELVAAITRSAASTHYADSVKGRFTISRDNAKNTVYVQMNSLKPEDTAVYYCAARFWYDYRHYDYWGQGTQVTVSS”, the “polyreactivity (PSR sort gate)” value was “low polyreactivity”.
For “QVQLVESGGGLVQAGGSLRLSCAASGRTFTLNAMGWYRQAPGKEREFVAAISNSGVRTYYADSVKGRFTISRDNAKNTVYLQMNSLKPEDTAVYYCARTYQVGDSIDDYWGQGTQVTVSS”, the “polyreactivity (PSR sort gate)” value was “low polyreactivity”.
In the case of “QVQLVESGGVLVQAGGSLRLICAASVRNFSTNSMGWYRQAPGKERELVASISFRGGRTYYADSVKGRFTISRDNAKNTVYLQMNSRKPEDNAVYYCVSGTKRTGYGYWGQGTQVTVSS”, the “polyreactivity (PSR sort gate)” value is reported as “high polyreactivity”.
In the case of “QVQLVESGGGLVQAGGSLRLSCAASGSTFDPYAMGWYRQAPGKERELVAAISRSGASTYADSVKGRFTISRDNAKNTVYLQMNSLKPEDTAVYYCAADSGYPYDYWGQGTQVTVSS”, the “polyreactivity (PSR sort gate)” value is reported as “low polyreactivity”.
With “QVQLVESGGGLVQAGGTLRLRCAASGFTFRYYVMRWYRQAPGKERELVAAITSGGSTNYADSVKGRFSISRDNAQNTVYLLMNSLKPEDTAVYYCAAGLSYRHNYWGQGTQVTVSS” the “polyreactivity (PSR sort gate)” value was “low polyreactivity”.
For “QVQLVESGGGLVQAGGSLRVICAPSGSTFGVYAMGWYRQAPGKERDLVAAISDTGGSTYYADSVKGRFTISRDNAKTTVYLQMNSLKPEDTAVYYCAVEVGYTDSPYSYDYWGHGTQVTVSS”, the “polyreactivity (PSR sort gate)” value was “low polyreactivity”.
For “QVQLVESGGGVVQAGGSLRLSCAASGSIFPINAMGWYRQAPGKERELVAAITSGGSTNYADSVKGRFTISRDNAKNTVYLQMNSLKPEDTAVYYCAADWRYWRWAFDYWGQGTQVTVSS”, the “polyreactivity (PSR sort gate)” value was “high polyreactivity”.
With “QVQLVESGGGLVQAGGSLRLSCAASGRTFAIYAMGWYRQAPGKERELVASISSSGDRTYYADSVKGRFTISRDNAKNTVYLQMNSLKPEDTAVYYCAARWRYTYYYWGQGTQVTVSS” the “polyreactivity (PSR sort gate)” value was “high polyreactivity”.
In the case of “QVQLVESGGGLVQAGGSLRLSCAASGRTFLNYPMGWYRPAPGKERELVASISSSGARTYYADSVKGRFTISRDNAKNTVYLQMNSLKPEDTAVYFCAVTAGRGGYPQGGVTRGYWGQGTQVTVSS”, the “polyreactivity (PSR sort gate)” value is reported as “high polyreactivity”.
In the case of “QVQLVESCGGLVQAGGILRLSCAASGFISSENAMGWYRQAPGKERELVAAISSGGSTNYADSVKGRFTISRDNAKNTVYLQMNRLKAEVTAVYYCAATLQGWYHEDESWGQGTQVTVSS”, the “polyreactivity (PSR sort gate)” value is reported as “low polyreactivity”.
In the case of “QVQLVESGGGLVQAGGSLRLSCAASGITFYVYAMGWYRQAPGKERELVAAINYDSGSTYYADSVKGRFTISRDNAKNTVYLQMNSLKPEDTAVYYCATDGVNPFYAYDFWGQGTQVTVSS”, the “polyreactivity (PSR sort gate)” value is reported as “low polyreactivity”.
For “QVQLVESGGGLVQAVGSLRLSCAASGSTFRGYTMGWYRQEPGKERELVSAINWSGGDTYYADSVKGRFTISRDNAKNTVYLQMNSLKPEDTAVYYCNTRHTYPQSFILRRDYWGQGTQVTVSS”, the “polyreactivity (PSR sort gate)” value was “low polyreactivity”.
In the case of “QFQIVESGGGLVQAGGSLRLSCAASGGTFVSYAMGWYRQAPGKERELVAAITYSGGSTYYADSVKGRFTISRDNAKNTVYLQMNSLKPEDTAVYYCAAAKFSYFSYCPRGKVKYEYWGQGTQVTVSS”, the “polyreactivity (PSR sort gate)” value is reported as “low polyreactivity”.
In the case of “QVQLVESGGGLVQAVGSLRLICDASGSTFYKYSMGWYRQAPGKERELVAAITTSGTGTYYADSVKGRFTISRDNAKNTVYLEMNSLKPEDTGVYYCNARIVYRVGVSRMYYWGQGTQVTVSS”, the “polyreactivity (PSR sort gate)” value is reported as “high polyreactivity”.
In the case of “QVQLEESGGGLVQAGGSLRLSCAASGSNFYLNDMGWYRQAPGKEREFVAAIDSRGTSTYYADSVKGRFTISRDNAKNTVYLQMNSLNPEDTAVYYCAADSYALEYDYWGQGTQVTVSS”, the “polyreactivity (PSR sort gate)” value is reported as “low polyreactivity”.
With “QVQLVESGGGLVQAGGSLRLSCAASGLTYKYYAMGWYRQAPGKERELVARISRGGNTNYADSVKGRFTISRDNAKNTVYLQMNSVKPEDTAVFYCAATVRVYDYWGQGTQVSVSS” the “polyreactivity (PSR sort gate)” value was “high polyreactivity”.
With “QVQHVESGGGLVQAGCSLRLCCAASGSTFGGYAMGWSSQAHGNERELVAGITIAVCSTYYADSVKGRFTISRDNAKNTVYLQMNSLKPEDTAVYYCAADGLSWYNYWGPGTQVTVSS” the “polyreactivity (PSR sort gate)” value was “high polyreactivity”.
In the case of “QVQLVESGGGLVQAGGSLRLSCAASGSTFGRNTMGWYRPAPGKERELVASITRSSTSTYYADSVKGRFTISRDNAKNTVYLQMNSLKPEDTAVYYCAARALRTDRSPVGRHEYWGQGTQVTVSS”, the “polyreactivity (PSR sort gate)” value is reported as “low polyreactivity”.
In the case of “QVQLVESGGGLVQAGGSLRLSCAASGFIFSYNAMGWYRQAPGKERELVATITRRGGGTTYADSVKGRFTISRDNAKNTVYLQMNSLKPEDTAGYYCNRDDNRKHSFGSVGYDYWGQGTQVTVSS”, the “polyreactivity (PSR sort gate)” value is reported as “low polyreactivity”.
With “QVQLVESGGGLVQAGGSLRLSCAASGFIFGYYAMGWYRQAPGKERELVAAISKIGDSTYYADSVKGRFTISRDNAKNTVYLQMNSLKPEDTAVYYCNKVVRNYPRLYGHWGQGTQVTVSS” the “polyreactivity (PSR sort gate)” value was “high polyreactivity”.
In the case of “QVQLVESGGGLVQAGGSLRLSCAASGSIFVYYTMGWYRQAPGKERELVAAISFSGGSTYADSVKGRFTISRDNAKNTVYLQMNSLKPEDTAVYFCNADRWLYTPSKFVEMDYWGQGTQVTVSS”, the “polyreactivity (PSR sort gate)” value is reported as “low polyreactivity”.
In the case of “HVQLQESGGGLLQAGGSLRLSCAASGSIFQATYMGWYRQATGKEREFVASITYGSITNYADSVKGRFTIGRDNAKDTLYLQMNSLKPEFTAVYYCAVARHYIPAFHYWGQGTQVTVSS”, the “polyreactivity (PSR sort gate)” value is reported as “low polyreactivity”.
For “QVQLVESGGGLVQAGGSLRLSCAASGFTFSGNTMGWSRQAPGKERELVATISRTGGITYYADSVKGRFTISRDNAKNTVYLQMNSLKPEDTAVYYCNRRYYYFVYPDDYWGQGTQVTVSS”, the “polyreactivity (PSR sort gate)” value was “high polyreactivity”.
In the case of “QVQLVESGGVLVQEGGSLRLICAASGSIFGYYVMGWYRQAPGKERELVAAISRSGGSTYYADSVKGLFTISRDNAKTTVYLQMNSLKQEDTAVYYCAASFAVRYPRLDYWGQGTQVTVSS”, the “polyreactivity (PSR sort gate)” value is reported as “high polyreactivity”.
In the case of “QVQLVESGGGLVQAGGSLRLSCDASGRIFSYYAMGWYRPAPGKERELVAAITRSGGNTYYADSVKGRFTISRDNAKNTVYLLMNSLKPEDTAVYYCAARLGRPFYGPNRYDYWGQGTQVTVSS”, the “polyreactivity (PSR sort gate)” value is reported as “high polyreactivity”.
In the case of “QVQLVESGGGLVQAGGSLRLSCAASGRTFPLNAMGWYRQAPGKERELVASITKSTGNTRYADSVKGRFTISRDNAKNTVYLQMNSLKPEDTAVYYCAARSYRDRYYWGQGTQVNVSS”, the “polyreactivity (PSR sort gate)” value is reported as “high polyreactivity”.
In the case of “QVQLVESGGGLVQSGGSLRLSCAASGSIFTGYAMGWYRQAPGKERELVAAITGRGTRTYYADSLKGRFTISRDNANNTVSLQMNSLKPEDTAVYYCAAPVGASSYRDYYWGQGTQVNVSS”, the “polyreactivity (PSR sort gate)” value is reported as “high polyreactivity”.
With “QFQLVESGGGLVQAGGSLRLSCADSGIIFRDNAMGWYRQAPGKERELVATIRRRGGGTYYADSVKGRFTISRDNAKNTVYLQMNSLKPEDSAVYYCAARVIKSSHDYDYWGQGTQVTVSS” the “polyreactivity (PSR sort gate)” value was “low polyreactivity”.
For “QVQLVESGGGLVQAGGSLRLSCAASGFTFPLNARGWYRQAPGKERELVAAITNGGTTYYADSVKGRFTISRDNAKNTVYLQMHSLKPEDTAVYYCAAYTYRYGSFKYGYWGQGTQVTVSS”, the “polyreactivity (PSR sort gate)” value was “low polyreactivity”.
With “QVQLVESGGGLVQARGSLRLSCAASGFTFDFYAMGWYRQAPGKERELVAAISKNDGTTYYADSVKGRFTISRDNAKNTVYLQMNSLKREDTAVYYCAAESGYPDYTYVSSGDYWGQGTQVTVSS” the “polyreactivity (PSR sort gate)” value was “low polyreactivity”.
In the case of “QVQLVESGGGLDLAGGSLRLSCAASGRTFLYYAMGWYRQAPWKDREFVASIRRGGGSTYYADSVKGRFTFSRDNAKHTVYLQMHSLKPVDTAVYYCAAQPYTLSLFRLNYDYWGQGTQVTVSS”, the “polyreactivity (PSR sort gate)” value is reported as “low polyreactivity”.
For “QVQLVESGGGLVQAGGSLRLSCAASGRILWYNAMGWYRQAPGKERELVAAINRGGSTNYADSVKGRFRISRDNAKNTVYLQMNSLKPEDTAVYYCAAVHYRWWYRSAYDYWGQGTQVTVSS”, the “polyreactivity (PSR sort gate)” value was “low polyreactivity”.
With “QVQLVESGGGLVQAGGSLRLSCAASGSTFRYNAMGWYRQAPGKERELVAAITSTGDSTYYADSVKGRFTISRDNAKNTVYLQMNSLKPEDTAVYYCAARSYASPGWRYEYWGQGTQVTVSS” the “polyreactivity (PSR sort gate)” value was “low polyreactivity”.
For “QVQHVESGGGLVQAGGSLRLSCAASGRIFWGYEMGWYRQAAGKEREFVAALSSGGGRTYYADSVKGRFTISRDNAKNTVYLQMNSLKPDDSGVYYSNAELNWYYYIHLDYWGQGTQVTVSW”, the “polyreactivity (PSR sort gate)” value was “low polyreactivity”.
